The text below walks through data of article PMC11957191.

Test [1] addresses myristoylated human Arf1 (myrArf1), GTP-bound form at a membrane surface (human) (UniProt P84077). The test is described as follows: not stated; binding test of the K391A mutant shown in Fig. SI5; method not given.
The target is the same in test [2].
The target of test [3] is myrArf1 with Glu54 mutated to Ala (human) (UniProt P84077).
Test [4] addresses myristoylated human Arf1 (myrArf1), GTP-bound form at a membrane surface (human) (UniProt P84077). The source holds these as a separate data set.

myristoylated human Arf1 (myrArf1), GTP-bound form at a membrane surface (human), sequence (P84077 whole entry): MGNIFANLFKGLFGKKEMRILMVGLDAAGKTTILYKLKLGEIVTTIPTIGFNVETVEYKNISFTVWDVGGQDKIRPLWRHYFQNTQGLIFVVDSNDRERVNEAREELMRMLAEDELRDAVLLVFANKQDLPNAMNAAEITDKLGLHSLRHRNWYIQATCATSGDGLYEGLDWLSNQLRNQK
ASAP1 PZA with Phe438 mutated to Ala, sequence (Q9QWY8 other isoform, or with tags, fused parts or gaps, change not shown): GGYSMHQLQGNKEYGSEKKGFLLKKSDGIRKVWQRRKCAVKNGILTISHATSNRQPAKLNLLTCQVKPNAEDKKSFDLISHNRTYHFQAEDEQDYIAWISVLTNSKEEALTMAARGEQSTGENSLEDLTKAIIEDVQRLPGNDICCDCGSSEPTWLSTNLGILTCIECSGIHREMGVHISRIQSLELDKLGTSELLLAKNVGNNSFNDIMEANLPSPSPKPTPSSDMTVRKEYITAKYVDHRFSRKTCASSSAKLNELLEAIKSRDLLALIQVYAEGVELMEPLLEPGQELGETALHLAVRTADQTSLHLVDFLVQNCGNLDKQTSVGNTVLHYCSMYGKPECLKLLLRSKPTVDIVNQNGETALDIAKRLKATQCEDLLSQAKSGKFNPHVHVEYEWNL
wt PZA, [325–724]ASAP1 (PH domain, Arf GAP zinc-binding domain and ankyrin repeats), sequence (Q9QWY8 325-724): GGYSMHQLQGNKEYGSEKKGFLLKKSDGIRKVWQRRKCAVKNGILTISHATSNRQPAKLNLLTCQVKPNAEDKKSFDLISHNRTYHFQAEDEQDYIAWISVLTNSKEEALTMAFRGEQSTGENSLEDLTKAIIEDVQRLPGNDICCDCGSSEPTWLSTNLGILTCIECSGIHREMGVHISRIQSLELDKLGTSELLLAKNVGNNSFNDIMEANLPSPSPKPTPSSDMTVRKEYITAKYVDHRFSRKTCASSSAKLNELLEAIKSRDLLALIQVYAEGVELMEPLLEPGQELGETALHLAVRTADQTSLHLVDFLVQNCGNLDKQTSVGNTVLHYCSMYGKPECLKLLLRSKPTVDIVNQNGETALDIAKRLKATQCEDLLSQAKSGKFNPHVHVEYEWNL
ΔN14PZA, ASAP1 PZA without residues 325–338, sequence (Q9QWY8 339-724, stated change not applied): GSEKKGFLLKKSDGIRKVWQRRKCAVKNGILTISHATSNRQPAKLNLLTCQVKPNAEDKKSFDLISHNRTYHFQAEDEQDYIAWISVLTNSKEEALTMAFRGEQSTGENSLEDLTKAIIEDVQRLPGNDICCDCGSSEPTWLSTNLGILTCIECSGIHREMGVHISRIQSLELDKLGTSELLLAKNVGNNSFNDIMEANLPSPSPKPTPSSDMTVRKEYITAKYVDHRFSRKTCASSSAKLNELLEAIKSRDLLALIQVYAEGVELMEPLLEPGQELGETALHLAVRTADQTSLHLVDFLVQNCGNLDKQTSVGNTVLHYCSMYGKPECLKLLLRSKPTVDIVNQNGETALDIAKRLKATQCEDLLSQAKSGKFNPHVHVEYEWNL
ASAP1 PZA with Lys391 mutated to Ala, sequence (Q9QWY8 other isoform, or with tags, fused parts or gaps, change not shown): as the sequence (Q9QWY8 325-724) above, with K67A counted along it
myrArf1 with Glu54 mutated to Ala (human), sequence (P84077 other isoform, or with tags, fused parts or gaps, change not shown): as the sequence (P84077 whole entry) above, with E54A counted along it
ASAP1 PZA with His405 mutated to Glu, sequence (Q9QWY8 other isoform, or with tags, fused parts or gaps, change not shown): as the sequence (Q9QWY8 325-724) above, with H81E counted along it

On to “ASAP1 PH domain with Lys391 mutated to Ala (from UniProt Q9QWY8 325-451) (domain or fragment)”, for which the fold reduction of binding against wild type in test [1] came to 2 fold.
Consider “ASAP1 PZA with His405 mutated to Glu (from UniProt Q9QWY8 325-724) (domain or fragment)”, for which the ArfGAP activity (C50 of PZA for 50% GTP hydrolysis in 3 min), fold reduction against wild type in test [2] came to 5 fold.
On the same count and under the same terms, as for “ASAP1 PZA with Lys391 mutated to Ala (from UniProt Q9QWY8 325-724) (domain or fragment)”, the figure is 100 fold; as for “ASAP1 PZA with Phe438 mutated to Ala (from UniProt Q9QWY8 325-724) (domain or fragment)”, 15 fold.
In turn, “wt PZA, [325–724]ASAP1 (PH domain, Arf GAP zinc-binding domain and ankyrin repeats) (from UniProt Q9QWY8 325-724) (domain or fragment)” showed an ArfGAP activity (C50 of PZA for 50% GTP hydrolysis in 3 min), fold reduction against wild type in test [3] of 70 fold.
For “ΔN14PZA, ASAP1 PZA without residues 325–338 (from UniProt Q9QWY8 339-724) (domain or fragment)”, the GAP activity on myrArf1·GTP relative to wt PZA (fold of wt PZA) in test [4] was less than 0.01.
